Laboratory results as given in patent US20240280570A1.
Read-outs that look alike come from different tables or passages of the source.

Tests used:
[1] = target: SARS-CoV-2 RBD (Sino Biological 40592-V08H); Spike Receptor Binding Domain residues R319 - F541 His tagged (SARS-CoV-2) (UniProt P0DTC2); test: OECT sensor, PEDOT:PSS channel, nanobody on gate, target in buffer
[2] = target: SARS-CoV-2 RBD (Sino Biological 40592-V08H); Spike Receptor Binding Domain residues R319 - F541 His tagged (SARS-CoV-2) (UniProt P0DTC2)
[3] = target: SARS-CoV-2 RBD (Sino Biological 40592-V08H); Spike Receptor Binding Domain residues R319 - F541 His tagged (SARS-CoV-2) (UniProt P0DTC2); remark: listed apart in the source

VHH72-8 aa-spyCatcher-3C cleavage site-His8
LOD [1]: 0.024 pM
LOD [2]: 0.023 pM
LOD [3]: 0.048 pM
